Test results as given in patent publication US20030175822A1.

Legend:
[1] = target: mu3 opiate receptor (human) (UniProt P35372); experiment: displacement of [3H]-dihydromorphine, membrane suspension of normal human lung
[2] = target: mu3 opiate receptor (human) (UniProt P35372); experiment: displacement of [3H]-dihydromorphine, membrane suspension of human lung non-small cell carcinoma
[3] = target: mu3 opiate receptor (human) (UniProt P35372); experiment: displacement of [3H]-dihydromorphine, membrane suspension of human granulocytes

Sequence of mu3 opiate receptor (human) (P35372 whole entry): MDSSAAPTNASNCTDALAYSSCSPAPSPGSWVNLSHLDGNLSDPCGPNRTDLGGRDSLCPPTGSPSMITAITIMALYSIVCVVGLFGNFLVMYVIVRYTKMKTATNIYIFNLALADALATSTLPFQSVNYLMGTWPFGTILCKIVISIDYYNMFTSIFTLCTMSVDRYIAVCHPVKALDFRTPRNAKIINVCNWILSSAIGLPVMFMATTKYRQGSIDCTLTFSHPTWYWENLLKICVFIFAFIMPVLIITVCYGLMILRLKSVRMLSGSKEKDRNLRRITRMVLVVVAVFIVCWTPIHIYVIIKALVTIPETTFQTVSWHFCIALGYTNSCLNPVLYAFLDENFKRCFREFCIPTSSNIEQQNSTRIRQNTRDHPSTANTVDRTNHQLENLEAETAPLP

Row | IC50 [1] [nM] | IC50 [2] [nM] | IC50 [3] [nM] | Substance
1 | > 1000 | > 1000 | > 1000 | (D-Pen^2, D-Pen^5)-enkephalin (peptide)
2 | > 1000 | > 1000 | > 1000 | Deltorphin (peptide)
3 | > 1000 | > 1000 | > 1000 | Dynorphin 1-17 (from UniProt P01213 207-223) (peptide)

Row | Substance | IC50 [1] [nM] | IC50 [2] [nM] | IC50 [3] [nM]
4 | (D-Ala^2, Leu^5)-enkephalin (from UniProt P01210 230-234) (peptide) | > 1000 | > 1000 | > 1000
